Reference: patent publication US20210388087A1 (Chugai, published 2021)
Substitutions are numbered along the chain they refer to. Numbers in names are those of the source.

B1: H183/L072 VH G26N (antibody, name in Kabat numbering, V domains shown)
VH: QVQLVESGGGLVQPGRSLRLSCAASNFTFSNAWMHWVRQAPGKGLEWVAQIKDKGNAYAAYYAPSVKGRFTISRDDSKNSIYLQMNSLKTEDTAVYYCHYVHYASASTVLPAFGVDAWGQGTTVTVSS
VL: DIVMTQSPLSLPVTPGEPASISCQASQELVHMNRNTYLHWYQQKPGQAPRLLIYKVSNRFPGVPDRFSGSGSGTDFTLKISRVEAEDVGVYYCAQGTSVPFTFGQGTKLEIK
B2: H183/L072 VH G26P (antibody, name in Kabat numbering, V domains shown)
VH: B1 VH with N26P
VL: B1 VL
B3: H183/L072 VH G26Q (antibody, name in Kabat numbering, V domains shown)
VH: B1 VH with N26Q
VL: B1 VL
B4: H183/L072 VH G26R (antibody, name in Kabat numbering, V domains shown)
VH: B1 VH with N26R
VL: B1 VL
B5: H183/L072 VH G26S (antibody, name in Kabat numbering, V domains shown)
VH: B1 VH with N26S
VL: B1 VL
B6: H183/L072 VH G26T (antibody, name in Kabat numbering, V domains shown)
VH: B1 VH with N26T
VL: B1 VL
B7: H183/L072 VH G26W (antibody, name in Kabat numbering, V domains shown)
VH: B1 VH with N26W
VL: B1 VL
B8: H183/L072 VH G26Y (antibody, name in Kabat numbering, V domains shown)
VH: B1 VH with N26Y
VL: B1 VL
B9: H183/L072 VH G52cA (antibody, name in Kabat numbering, V domains shown)
VH: B1 VH with N26G, G55A
VL: B1 VL
B10: H183/L072 VH G52cD (antibody, name in Kabat numbering, V domains shown)
VH: B1 VH with N26G, G55D
VL: B1 VL
B11: H183/L072 VH G52cE (antibody, name in Kabat numbering, V domains shown)
VH: B1 VH with N26G, G55E
VL: B1 VL
B12: H183/L072 VH G52cF (antibody, name in Kabat numbering, V domains shown)
VH: B1 VH with N26G, G55F
VL: B1 VL
B13: H183/L072 VH G52cH (antibody, name in Kabat numbering, V domains shown)
VH: B1 VH with N26G, G55H
VL: B1 VL
B14: H183/L072 VH G52cI (antibody, name in Kabat numbering, V domains shown)
VH: B1 VH with N26G, G55I
VL: B1 VL
B15: H183/L072 VH G52cK (antibody, name in Kabat numbering, V domains shown)
VH: B1 VH with N26G, G55K
VL: B1 VL
B16: H183/L072 VH G52cL (antibody, name in Kabat numbering, V domains shown)
VH: B1 VH with N26G, G55L
VL: B1 VL
B17: H183/L072 VH G52cM (antibody, name in Kabat numbering, V domains shown)
VH: B1 VH with N26G, G55M
VL: B1 VL
B18: H183/L072 VH G52cN (antibody, name in Kabat numbering, V domains shown)
VH: B1 VH with N26G, G55N
VL: B1 VL

molecular target: T1, Human CD137 ECD (human); experiment: single mutant vs template dBBDu183H
T1 construct: also called 4-1BB
T1 sequence (chain, as listed by the source limits assumed): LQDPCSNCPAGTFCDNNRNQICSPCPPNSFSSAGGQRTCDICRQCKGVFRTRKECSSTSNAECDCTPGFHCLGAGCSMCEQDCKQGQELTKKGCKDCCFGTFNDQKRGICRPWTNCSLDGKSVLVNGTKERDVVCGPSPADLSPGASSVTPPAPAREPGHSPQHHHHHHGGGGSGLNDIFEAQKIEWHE

Compared with B1, B2 is lower in “fold change of affinity” value: 0.5 fold for the first, 0.1 fold for the second.

First: B3
Second: B4
The “fold change of affinity” value of the first is higher: 0.4 fold for the first, 0.3 fold for the second.

Going from B5 to B6, the “fold change of affinity” value rises from 0.4 fold to 0.5 fold.

B7 and B8 are the same in “fold change of affinity” value: 0.3 fold for the first, 0.3 fold for the second.

Compared with B9, B10 is lower in “fold change of affinity” value: 0.8 fold for the first, 0.6 fold for the second.

First: B11
Second: B12
The “fold change of affinity” value of the first is lower: 0.8 fold for the first, 1.7 fold for the second.

Compared with B13, B14 is lower in “fold change of affinity” value: 1.3 fold for the first, 0.7 fold for the second.

Going from B15 to B16, the “fold change of affinity” value rises from 0.2 fold to 0.8 fold.

First: B17
Second: B18
The “fold change of affinity” value of the first is lower: 0.6 fold for the first, 0.9 fold for the second.
